We go through 24 sequences from the Immune Epitope Database (IEDB).

What is called IC50 is the concentration that gives 50% inhibition.

One assay concerns the target HLA-B*35:01. In words: IEDB peptide-MHC binding, purified MHC/competitive/radioactivity; ≥ and ≤ were set here for values at or beyond the usual limits of such assays. The following applies: source organism: Bordetella pertussis.
On to GEAMVLVYY, for which the 50% inhibitory concentration (IC50) amounted to 36.4 µM.
In the case of ILAGALATY, the IC50 worked out at 4.29 µM.
The same measure, in the same setting: to LAGSGLFRM belongs 0.767 µM; to MAPVMGACM, 5 µM.

For the next assay, the target named is HLA-B*07:02. The description is as above. The following applies: source organism: Bordetella pertussis.
With MPKAPELDL, the IC50 worked out at 21 µM.
Consider RPSVNGGRI, for which the IC50 was 0.348 µM.

In another assay the target is HLA-B*53:01. Described as above. To be noted: source organism: Bordetella pertussis.
Regarding FPTRTTAPG, the IC50 was found to be 0.894 µM.
As for HANHYGTRI, the IC50 is 52.1 µM.
For the sequence TAPVTSPAW, the IC50 was 4.36 µM.

The next assay deals with HLA-A*02:01. Described as above. To be noted: source organism: Bordetella pertussis.
With EGGKLRGKD, the IC50 was at least 78.1 µM.
Consider IIKDAPPGA, for which the IC50 was 15.4 µM.
The same measure, in the same setting: the result for IIQEFAADL reads 4.15 µM.
Consider TLSSAHGNV, for which the IC50 was 48.6 µM.
On the same count and under the same terms, to VKLGGVYEA belongs 9.59 µM.

The next assay addresses HLA-B*57:01. The assay is described as above. To be noted: source organism: Bordetella pertussis.
As for AARVAGDNY, the IC50 is 32.3 µM.
Same read-out and setting: the result for KATVTTVQV reads 35.2 µM.
Take RARRALRQD: the IC50 amounted to 13.5 µM.
The same measure, in the same setting: to RRFTHADGW belongs 55.9 µM; to RSGARATSL, 21.9 µM; to SVKVAKKLF, at least 70.4 µM.

The next assay deals with HLA-B*44:03. The assay is described as above. The following applies: source organism: Bordetella pertussis.
As to AEIAFYPKE, the IC50 stood at 0.48 µM.
Consider AQVTVAGRY, for which the IC50 turned out to be 3.25 µM.
As for RETFCITTI, the IC50 turned out to be 0.214 µM.
In the case of TEAQGVQVR, the IC50 came out at 19.9 µM.
